Experimental data taken from the Human Domainome abundance scans (Beltran et al. 2025).

B1: Tripartite motif-containing protein 6, residues 93 to 134; numbered along this chain, Q9C030 (parent)
chain: KAVLCADHGEKLQLFCQEDGKVICWLCERSQEHRGHHTFLVE

Variants of: B1
Assay: abundance fitness (aPCA) (normalised: wild type 0, dead -1); higher = more abundant; growth selection in yeast, the domain comes from the species named
Conditions: Homo sapiens

Abundance fitness, by site and new letter:
K1: A -0.273 | R -0.296 | N -0.296 | G -0.193 | W -0.722 | V -0.191 | T -0.255 | F -0.36 | C -0.698 | L -0.439 | S -0.142 | D 0.292 | E 0 | Y -0.01 | Q -0.32
K11: T -0.101 | R -0.042 | P 0.315 | A 0.029 | D 0.142 | G -0.012 | N -0.007 | L -0.2 | W 0.339 | S 0.155 | Q -0.3 | F -0.113 | E 0.103 | I -0.073 | V -0.055
C5: R -0.978 | F -0.871 | E -0.615 | M -0.769 | Q -0.812 | D -0.807 | W -1.06 | T -0.954 | V -0.839 | K -0.789 | N -0.922 | Y -0.602 | P -0.777 | H -0.768 | A -1.06 | G -0.664 | L -0.999
G9: W -0.301 | T -0.407 | Q -0.032 | M -0.162 | H -0.287 | R -0.066 | C -0.237 | A -0.061 | S -0.042 | N 0.332 | V -0.575 | E -0.179 | L -0.238 | D -0.087
L14: H 0.122 | A -0.186 | G -0.082 | F -0.064 | T -0.087 | N -0.153 | E -0.195 | I 0.001 | K 0.065 | V -0.154 | C -0.198 | M 0.071 | P -0.151 | D -0.087 | R 0.106 | W 0.218
E10: S -0.319 | A -0.185 | C -0.163 | F -0.01 | G -0.165 | R -0.019 | H -0.442 | W -0.406 | Y -0.031 | D -0.075 | Q -0.1
H8: Q -0.275 | V -0.852 | T -0.69 | G -0.691 | E -0.518 | S -0.901 | L -1.08 | K -0.419 | C -0.584 | N -0.807 | R -0.77 | I -0.74 | A -0.706 | W -1 | P -0.819 | F -1.09
Q13: R -0.135 | S 0.058 | M -0.274 | I -0.086 | D -0.109 | V -0.148 | K 0.128 | Y -0.217 | N 0.21 | G -0.071 | E 0.142 | A 0.004 | T 0.124 | P -0.256
A6: F -0.158 | K -0.011 | L -0.215 | G -0.196 | H -0.43 | I -0.321 | T -0.242 | R -0.035 | W -0.48 | N -0.306 | S 0.055 | D -0.11 | Y -0.19 | C -0.156 | E -0.244 | Q -0.087 | P -0.056
L4: R -0.082 | M 0.195 | D -0.223 | F 0.141 | Q -0.272 | E -0.126 | S -0.217 | C -0.189 | G -0.175 | A -0.165 | W -0.199 | T -0.066 | V 0.011 | K -0.148 | N 0.224 | Y 0.047
A2: Y -0.153 | W -0.04 | V 0.065 | D -0.031 | R 0.067 | C -0.167 | G 0.198 | S 0.045 | M 0.264 | P -0.071 | L -0.013 | K 0.133 | T 0.136 | E 0.195 | I -0.018 | N 0.066
